These results are taken from patent US12714679B2, “Fullerenes to treat diseases and conditions” (The Cleveland Clinic Foundation, priority 2018, dated 2026).

A short description of data set [1]: Lead acetate (PbA/PbS) assay, catalytic H2S production from cysteine. The data set is classed as biochemical. The procedure: Further work was conducted as follows with regard to the catalytic production of H2S by PHFs. PHF (SJJR; 10 mg/mL) was added to a mixture of L-cysteine (10 mM) and […] (PLP; 1 mM) in a 96-well plate and then covered with a blotting paper saturated with lead acetate. After 24 hours, the lead acetate paper was removed and scanned. The lead sulfide dots were analyzed for average integrated density using ImageJ. After every 24 hours, the wells were replenished with L-cysteine (10 mM) and covered with the lead acetate paper and the lead sulfide dots were analyzed.
Lead acetate assay: The kinetics and catalysis coefficients for PHF catalyzed H2S production were determined using lead acetate assay (PbA/PbS assay) as generally described in Hine and Mitchell, “Endpoint and Kinetic Measurement of Hydrogen Sulfide Production Capacity in Tissue Extracts” Bio-Protocol, 7 (13), e2382, 2017). Briefly: Reaction mixtures (150 μL/well) containing PHF or enzyme (CGL), enzyme co-factor (PLP) and substrate (e.g., cysteine) were tested in 96-well plates Immediately after addition of catalyst, 96-well plates were covered with lead acetate saturated paper and placed inside a 37° C. cell culture incubator. At a predetermined time point, the lead acetate paper was removed and scanned, and the lead sulfide dots analyzed with ImageJ using the IntDen function. A calibration curve was prepared with different concentrations of sodium hydrosulfide plotted against the integrated density obtained on lead acetate/lead sulfide paper. The presence of pyruvic acid after reaction was confirmed in a preliminary experiment by liquid chromatography—mass spectroscopy.
To determine the steady-state kinetic parameters experiments were carried out with different initial substrate concentrations. The initial (linear) slope from the graph of H2S concentration versus time at each substrate concentration was used to determine the reaction velocity, which was plotted against initial cysteine concentrations to obtain Michaelis-Menten curves (FIGS. 5 and 6). Least squares non-linear fitting was used to determine values of Km and Vmax from the equation v=Vmax [S]/(Km+[S]).

Data set [2] in a line: HR-TEM size. The data set is classed as physicochemical. An excerpt:
FIG. 3: Panel A) a hypothetical schematic illustration of the breakdown of cysteine to hydrogen sulfide, ammonia and pyruvic acid. While the present disclosure is not limited to any particular mechanism and an understanding of the mechanism is not necessary to practice the invention, it is believed that polyhydroxy fullerenes (PHF) mimic carbon-sulfur lyases. It was found during work conducted during development of embodiments herein that PHFs catalyze the breakdown of cysteine under physiological conditions. Panel B) HR-TEM image of PHF (C60(OH)9O7Na6) showing a cluster size of 3.4±0.5 nm. Panel C) HR-TEM image of CGL showing a molecular size of 4.1±0.4 nm.

Where [3] appears, read: Without PLP, substrate L-Cysteine.

Regarding `Cc1ncc(COP(=O)(O)O)c(C=O)c1O` [PLP, pyridoxal-5′-phosphate, reference compound], the H2S produced in data set [1] (PLP with cysteine, no PHF, in 24 hours) is reported as 0.024 mM.

B1: cystathionine γ-lyase (protein, UniProt P32929 1-405, looked up)
Cystathionine gamma-lyase: MQEKDASSQGFLPHFQHFATQAIHVGQDPEQWTSRAVVPPISLSTTFKQGAPGQHSGFEYSRSGNPTRNCLEKAVAALDGAKYCLAFASGLAATVTITHLLKAGDQIICMDDVYGGTNRYFRQVASEFGLKISFVDCSKIKLLEAAITPETKLVWIETPTNPTQKVIDIEGCAHIVHKHGDIILVVDNTFMSPYFQRPLALGADISMYSATKYMNGHSDVVMGLVSVNCESLHNRLRFLQNSLGAVPSPIDCYLCNRGLKTLHVRMEKHFKNGMAVAQFLESNPWVEKVIYPGLPSHPQHELVKRQCTGCTGMVTFYIKGTLQHAEIFLKNLKLFTLAESLGGFESLAELPAIMTHASVLKNDRDVLGISDTLIRLSVGLEDEEDLLEDLDQALKAAHPPSGSHS
notes: enzyme producing H2S from cysteine, comparator catalyst
As usually defined, the Km is the substrate concentration at which the rate is half of its maximum. The term Vmax denotes the top rate of the reaction or transport when substrate is in excess. In turn, B1 came in with a molecular size in data set [2] of 4.1±0.4 nm. Besides, the “H2S production at room temperature” value in data set [1] (PBS) was “produced H2S only in presence of PLP”. Also, in data set [1] (PBS, presence or absence of PLP), the “H2S production at 4° C.” value is “No H2S was produced”. In addition, in data set [1] (With PLP, substrate L-Cysteine), the KCAT worked out at 130 s⁻¹, the Km was 25.4 mM and the Vmax was found to be 2.9 nM/s. Moreover, in data set [1] (setting [3]), the KCAT stood at 5800 s⁻¹ and the Vmax worked out at 1.3 nM/s.
